In patent US20240287172A1 (SCIRHOM, published 2024):
Residue numbers refer to the chain shown, from its start.

T1: hiR2-FL-G546A-T7 (human, UniProt Q6PJF5 1-856)
T1 sequence: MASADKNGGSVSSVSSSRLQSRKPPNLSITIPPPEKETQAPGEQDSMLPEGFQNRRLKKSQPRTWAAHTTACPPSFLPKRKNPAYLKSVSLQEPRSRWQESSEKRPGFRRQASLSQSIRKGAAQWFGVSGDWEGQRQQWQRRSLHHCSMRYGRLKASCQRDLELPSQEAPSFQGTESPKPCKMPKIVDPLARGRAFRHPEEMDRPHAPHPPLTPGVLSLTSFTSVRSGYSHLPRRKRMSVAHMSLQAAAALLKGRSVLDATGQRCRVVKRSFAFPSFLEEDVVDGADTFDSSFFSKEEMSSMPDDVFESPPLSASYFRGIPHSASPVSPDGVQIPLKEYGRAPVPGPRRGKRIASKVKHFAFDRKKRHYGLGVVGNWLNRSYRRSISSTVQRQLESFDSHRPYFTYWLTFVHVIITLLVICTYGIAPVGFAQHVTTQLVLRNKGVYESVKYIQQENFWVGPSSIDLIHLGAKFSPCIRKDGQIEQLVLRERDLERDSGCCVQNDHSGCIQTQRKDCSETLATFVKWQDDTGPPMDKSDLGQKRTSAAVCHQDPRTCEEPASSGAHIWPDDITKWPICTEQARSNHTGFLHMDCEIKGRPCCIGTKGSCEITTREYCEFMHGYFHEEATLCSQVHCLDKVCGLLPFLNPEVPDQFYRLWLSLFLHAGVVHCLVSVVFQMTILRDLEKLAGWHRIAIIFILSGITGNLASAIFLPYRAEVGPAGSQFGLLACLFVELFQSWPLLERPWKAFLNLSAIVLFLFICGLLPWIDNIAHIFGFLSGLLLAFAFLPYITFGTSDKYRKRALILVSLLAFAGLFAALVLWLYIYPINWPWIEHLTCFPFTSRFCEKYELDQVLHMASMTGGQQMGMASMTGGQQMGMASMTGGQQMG

T2: hiR2-FL-H505R-T7 (human, UniProt Q6PJF5 1-856)
T2 sequence: T1 sequence with H505R, A546G

B1: antibody 5 (antibody, V domains shown)
VH: QVTLKESGPGILQPSQTLSLTCSFSGFSLSTFGMGVGWIRQPSGKGLEWLAHIWWDDEKYYNSALKSRLTISKATSKNQAFLKIANVDTADTATYYCARISNYGSNYWYFNVWGTGTTVTVSS
VL: QVVLTQSPALMSASPGEKVTMTCSAGSSVSCMYWYQQKPGSSPRVLIYDTSNLASGVPARFTGSGSGTSYSLTISRMEAEDAASYYCQQWNSYPLTFGAGTKLELK
notes: mouse IgG, kappa light chain; also called clone #5; purified antibody 5
B2: antibody 50 (antibody, V domains shown)
VH: QVQLQQSGAELVRPGASVKVSCKASGYAFSNYLIEWVKQRPGQGLEWIGVINPGSGFTKYNEKFKGKATLTADKSSSTAYMQLSSLTSEDSAVYFCARGLYRAMDYWGQGTSVTVSS
VL: DIQMTQSPASQSASLGESVTITCLASQTIGTWLAWYQQKPGKSPQLLIYAAASLADGVPSRFSGGGSGTKFSFKISSLQAEDFVNYYCQQIYSTPYTFGGGTKLEIK
notes: mouse IgG, kappa light chain; also called clone #50; purified antibody 50

Assays:
hiR2-FL-G546A-T7 = molecular target: T1, hiR2-FL-G546A-T7; experiment: FACS on MEF-DKO cells
hiR2-FL-H505R-T7 = molecular target: T2, hiR2-FL-H505R-T7; experiment: FACS on MEF-DKO cells

Binder | binding result (hiR2-FL-G546A-T7) | binding result (hiR2-FL-H505R-T7)
B1 | no binding (tested: 3 µg/ml) | 
B2 |  | no binding (tested: 3 µg/ml)
